Assay results from article PMC10156175 (Cell, 2023).

B1: FBXW7 (263-C) (domain or fragment)
chain: TQVKHMMQVIEPQFQRDFISLLPKELALYVLSFLEPKDLLQAAQTCRYWRILAEDNLLWREKCKEEGIDEPLHIKRRKVIKPGFIHSPWKSAYIRQHRIDTNWRRGELKSPKVLKGHDDHVITCLQFCGNRIVSGSDDNTLKVWSAVTGKCLRTLVGHTGGVWSSQMRDNIIISGSTDRTLKVWNAETGECIHTLYGHTSTVRCMHLHEKRVVSGSRDATLRVWDIETGQCLHVLMGHVAAVRCVQYDGRRVVSGAYDFMVKVWDPETETCLHTLQGHTNRVYSLQFDGIHVVSGSLDTSIRVWDVETGNCIHTLTGHQSLTSGMELKDNILVSGNADSTVKIWDIKTGQCLQTLQGPNKHQSAVTCLQFNKNFVITSSDDGTVKLWDLKTGEFIRNLVTLESGGSGGVVWRIRASNTKLVCAVGSRNGTEETKLLVLDFDVDMK
B2: CAND1 (Cullin-associated NEDD8-dissociated protein 1) (natural protein)
chain: MASASYHISNLLEKMTSSDKDFRFMATNDLMTELQKDSIKLDDDSERKVVKMILKLLEDKNGEVQNLAVKCLGPLVSKVKEYQVETIVDTLCTNMLSDKEQLRDISSIGLKTVIGELPPASSGSALAANVCKKITGRLTSAIAKQEDVSVQLEALDIMADMLSRQGGLLVNFHPSILTCLLPQLTSPRLAVRKRTIIALGHLVMSCGNIVFVDLIEHLLSELSKNDSMSTTRTYIQCIAAISRQAGHRIGEYLEKIIPLVVKFCNVDDDELREYCIQAFESFVRRCPKEVYPHVSTIINICLKYLTYDPNYNYDDEDEDENAMDADGGDDDDQGSDDEYSDDDDMSWKVRRAAAKCLDAVVSTRHEMLPEFYKTVSPALISRFKEREENVKADVFHAYLSLLKQTRPVQSWLCDPDAMEQGETPLTMLQSQVPNIVKALHKQMKEKSVKTRQCCFNMLTELVNVLPGALTQHIPVLVPGIIFSLNDKSSSSNLKIDALSCLYVILCNHSPQVFHPHVQALVPPVVACVGDPFYKITSEALLVTQQLVKVIRPLDQPSSFDATPYIKDLFTCTIKRLKAADIDQEVKERAISCMGQIICNLGDNLGSDLPNTLQIFLERLKNEITRLTTVKALTLIAGSPLKIDLRPVLGEGVPILASFLRKNQRALKLGTLSALDILIKNYSDSLTAAMIDAVLDELPPLISESDMHVSQMAISFLTTLAKVYPSSLSKISGSILNELIGLVRSPLLQGGALSAMLDFFQALVVTGTNNLGYMDLLRMLTGPVYSQSTALTHKQSYYSIAKCVAALTRACPKEGPAVVGQFIQDVKNSRSTDSIRLLALLSLGEVGHHIDLSGQLELKSVILEAFSSPSEEVKSAASYALGSISVGNLPEYLPFVLQEITSQPKRQYLLLHSLKEIISSASVVGLKPYVENIWALLLKHCECAEEGTRNVVAECLGKLTLIDPETLLPRLKGYLISGSSYARSSVVTAVKFTISDHPQPIDPLLKNCIGDFLKTLEDPDLNVRRVALVTFNSAAHNKPSLIRDLLDTVLPHLYNETKVRKELIREVEMGPFKHTVDDGLDIRKAAFECMYTLLDSCLDRLDIFEFLNHVEDGLKDHYDIKMLTFLMLVRLSTLCPSAVLQRLDRLVEPLRATCTTKVKANSVKQEFEKQDELKRSAMRAVAALLTIPEAEKSPLMSEFQSQISSNPELAAIFESIQKDSSSTNLESMDTS
modifications: for the native gels only: TAMRA-(PEG)5-LPETGG peptide joined to the amino-terminus by sortase

Experiments:
[1] = molecular target: CUL1 (human, UniProt Q13616); assay: cryo-EM structure
[2] = molecular target: SCF^SKP2 (CUL1-RBX1-SKP1-SKP2), pre-formed (human, UniProt Q13616;P62877;P63208;Q13309); assay: native gel or EMSA
[3] = molecular target: SCF^FBXW7 (CUL1-RBX1-SKP1-FBXW7), pre-formed (human, UniProt Q13616;P62877;P63208;Q969H0, for the native gels: labelled with fluorescein (site not stated)); assay: native gel or EMSA
SCF^FBXW7 (CUL1-RBX1-SKP1-FBXW7), pre-formed, sequence (Q13616 whole entry, chain 1 of 3): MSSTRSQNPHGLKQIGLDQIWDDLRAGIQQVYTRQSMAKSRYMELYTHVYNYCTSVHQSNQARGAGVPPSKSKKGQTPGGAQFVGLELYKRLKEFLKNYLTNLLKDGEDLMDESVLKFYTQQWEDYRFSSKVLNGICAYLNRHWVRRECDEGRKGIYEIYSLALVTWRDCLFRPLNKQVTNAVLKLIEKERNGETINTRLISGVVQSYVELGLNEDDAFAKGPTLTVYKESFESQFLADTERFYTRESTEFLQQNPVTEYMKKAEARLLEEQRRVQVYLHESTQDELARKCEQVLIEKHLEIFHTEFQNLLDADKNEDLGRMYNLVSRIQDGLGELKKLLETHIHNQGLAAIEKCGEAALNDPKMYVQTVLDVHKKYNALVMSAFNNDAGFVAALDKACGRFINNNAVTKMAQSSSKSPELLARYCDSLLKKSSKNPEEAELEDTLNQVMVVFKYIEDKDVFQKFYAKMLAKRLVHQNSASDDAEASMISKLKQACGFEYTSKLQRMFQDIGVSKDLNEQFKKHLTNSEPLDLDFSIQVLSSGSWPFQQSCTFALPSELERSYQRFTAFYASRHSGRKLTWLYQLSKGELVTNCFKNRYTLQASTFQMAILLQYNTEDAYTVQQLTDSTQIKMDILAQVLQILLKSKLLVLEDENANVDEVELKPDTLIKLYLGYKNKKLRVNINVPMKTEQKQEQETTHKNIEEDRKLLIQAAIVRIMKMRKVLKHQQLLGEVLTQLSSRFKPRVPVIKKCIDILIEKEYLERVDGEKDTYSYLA
SCF^FBXW7 (CUL1-RBX1-SKP1-FBXW7), pre-formed, sequence (P62877 5-108, chain 2 of 3): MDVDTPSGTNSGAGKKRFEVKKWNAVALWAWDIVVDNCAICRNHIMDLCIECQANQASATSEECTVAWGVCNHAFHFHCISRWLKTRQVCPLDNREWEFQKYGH
SCF^FBXW7 (CUL1-RBX1-SKP1-FBXW7), pre-formed, sequence (P63208 whole entry, chain 3 of 3): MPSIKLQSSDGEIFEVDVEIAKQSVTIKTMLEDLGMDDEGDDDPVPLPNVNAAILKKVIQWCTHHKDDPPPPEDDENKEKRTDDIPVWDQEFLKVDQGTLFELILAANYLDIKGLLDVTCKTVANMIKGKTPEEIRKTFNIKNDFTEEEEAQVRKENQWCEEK

CUL1, sequence (Q13616 whole entry): as the sequence (Q13616 whole entry, chain 1 of 3) above
SCF^SKP2 (CUL1-RBX1-SKP1-SKP2), pre-formed, sequence (Q13616 whole entry, chain 1 of 4): as the sequence (Q13616 whole entry, chain 1 of 3) above
SCF^SKP2 (CUL1-RBX1-SKP1-SKP2), pre-formed, sequence (P62877 5-108, chain 2 of 4): as the sequence (P62877 5-108, chain 2 of 3) above
SCF^SKP2 (CUL1-RBX1-SKP1-SKP2), pre-formed, sequence (P63208 whole entry, chain 3 of 4): as the sequence (P63208 whole entry, chain 3 of 3) above
SCF^SKP2 (CUL1-RBX1-SKP1-SKP2), pre-formed, sequence (Q13309 whole entry, chain 4 of 4): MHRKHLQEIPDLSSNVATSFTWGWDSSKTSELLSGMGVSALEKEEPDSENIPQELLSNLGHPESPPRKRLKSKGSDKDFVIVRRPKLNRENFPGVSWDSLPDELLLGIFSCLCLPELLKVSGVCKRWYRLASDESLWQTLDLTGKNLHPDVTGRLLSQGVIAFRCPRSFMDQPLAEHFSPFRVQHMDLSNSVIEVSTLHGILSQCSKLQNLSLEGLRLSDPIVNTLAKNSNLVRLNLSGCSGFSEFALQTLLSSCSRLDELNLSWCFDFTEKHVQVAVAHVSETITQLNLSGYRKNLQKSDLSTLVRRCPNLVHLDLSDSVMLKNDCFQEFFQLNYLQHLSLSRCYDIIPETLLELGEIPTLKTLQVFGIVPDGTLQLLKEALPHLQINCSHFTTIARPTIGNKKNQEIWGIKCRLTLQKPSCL

Binder	binding result [1]	binding result [2]	binding result [3]
B1	binds	–	–
B2	–	binds	binds
